Tests used:
[1] = target: T1, LetA (N-terminal 6xHis2xQH-TEV tagged LetA) (E. coli, UniProt P0AD03 1-427); experiment: cryo-EM structure
T1 sequence (looked up): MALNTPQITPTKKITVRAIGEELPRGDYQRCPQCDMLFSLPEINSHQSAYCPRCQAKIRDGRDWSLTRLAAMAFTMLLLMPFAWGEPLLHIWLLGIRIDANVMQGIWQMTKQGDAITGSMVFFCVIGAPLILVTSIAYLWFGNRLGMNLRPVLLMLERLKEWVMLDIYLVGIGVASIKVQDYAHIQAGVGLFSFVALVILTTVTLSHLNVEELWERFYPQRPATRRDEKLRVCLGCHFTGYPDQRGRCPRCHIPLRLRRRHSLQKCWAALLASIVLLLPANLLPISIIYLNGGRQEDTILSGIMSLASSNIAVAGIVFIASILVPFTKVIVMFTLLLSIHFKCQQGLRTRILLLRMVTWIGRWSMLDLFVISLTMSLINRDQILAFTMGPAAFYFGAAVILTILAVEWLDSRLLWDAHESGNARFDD

cryo-EM structure = target: the molecule itself; experiment: cryo-EM structure

B1: LetB (Lipophilic Envelope-spanning Tunnel B), untagged (natural protein, E. coli, UniProt P76272 1-877, looked up)
chain: MSQETPASTTEAQIKNKRRISPFWLLPFIALMIASWLIWDSYQDRGNTVTIDFMSADGIVPGRTPVRYQGVEVGTVQDISLSDDLRKIEVKVSIKSDMKDALREETQFWLVTPKASLAGVSGLDALVGGNYIGMMPGKGKEQDHFVALDTQPKYRLDNGDLMIHLQAPDLGSLNSGSLVYFRKIPVGKVYDYAINPNKQGVVIDVLIERRFTDLVKKGSRFWNVSGVDANVSISGAKVKLESLAALVNGAIAFDSPEESKPAEAEDTFGLYEDLAHSQRGVIIKLELPSGAGLTADSTPLMYQGLEVGQLTKLDLNPGGKVTGEMTVDPSVVTLLRENTRIELRNPKLSLSDANLSALLTGKTFELVPGDGEPRKEFVVVPGEKALLHEPDVLTLTLTAPESYGIDAGQPLILHGVQVGQVIDRKLTSKGVTFTVAIEPQHRELVKGDSKFVVNSRVDVKVGLDGVEFLGASASEWINGGIRILPGDKGEMKASYPLYANLEKALENSLSDLPTTTVSLSAETLPDVQAGSVVLYRKFEVGEVITVRPRANAFDIDLHIKPEYRNLLTSNSVFWAEGGAKVQLNGSGLTVQASPLSRALKGAISFDNLSGASASQRKGDKRILYASETAARAVGGQITLHAFDAGKLAVGMPIRYLGIDIGQIQTLDLITARNEVQAKAVLYPEYVQTFARGGTRFSVVTPQISAAGVEHLDTILQPYINVEPGRGNPRRDFELQEATITDSRYLDGLSIIVEAPEAGSLGIGTPVLFRGLEVGTVTGMTLGTLSDRVMIAMRISKRYQHLVRNNSVFWLASGYSLDFGLTGGVVKTGTFNQFIRGGIAFATPPGTPLAPKAQEGKHFLLQESEPKEWREWGTALPK
stoichiometry N [1]: 6 LetB per LetA | stoichiometry N (cryo-EM structure): 6

Reference: doi:10.1101/2025.03.21.644421 (bioRxiv, 2025)
